From EP4745153A1, “GLP-1, GIP AND GCG RECEPTOR […] USE THEREOF” (Jiangsu Hengrui Pharmaceuticals Co., Ltd., priority 2023, dated 2025)
Starred links: 1 amine or outer side, 2 acyl side, 3 side chain; linkers in the order of their positions; H or OH if unused. Non-standard residues stand in square brackets, D forms with d. Groups on a side chain read outwards from the residue. No end group written: not given here. *: point of attachment. C20 diacid = O=C(O)CCCCCCCCCCCCCCCCCCC(=O)*; γGlu = O=C(O)[C@H](CCC(=O)[*:2])N[*:1]; αMeK = C[C@](N)(CCCCN)C(=O)O; αMeS = C[C@](N)(CO)C(=O)O; AEEA = NCCOCCOCC(=O)O; Aib = CC(C)(N)C(=O)O

How the values were obtained:
Experiment in all cases: cell-based or functional assay
[1] = biological target: human glucagon-like peptide-1 receptor (human, UniProt P43220 24-463)
human glucagon receptor = human glucagon receptor (human, UniProt P47871 26-477)
[2] = biological target: T1, human glucose-dependent insulinotropic polypeptide receptor (human, UniProt P48546 22-466)
T1 sequence (looked up): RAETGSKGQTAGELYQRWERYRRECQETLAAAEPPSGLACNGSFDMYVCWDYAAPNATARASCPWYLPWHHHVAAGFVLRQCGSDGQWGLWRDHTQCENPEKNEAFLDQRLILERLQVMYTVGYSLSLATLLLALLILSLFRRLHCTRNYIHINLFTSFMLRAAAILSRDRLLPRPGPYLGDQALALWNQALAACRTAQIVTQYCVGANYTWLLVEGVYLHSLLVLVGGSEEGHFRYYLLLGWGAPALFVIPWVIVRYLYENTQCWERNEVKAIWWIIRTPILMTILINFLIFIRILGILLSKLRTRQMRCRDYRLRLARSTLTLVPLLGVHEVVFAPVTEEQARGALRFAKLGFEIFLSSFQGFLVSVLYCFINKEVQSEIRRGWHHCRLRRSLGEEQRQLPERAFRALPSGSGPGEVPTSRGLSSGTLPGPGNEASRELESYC

Sequence of human glucagon receptor (P47871 26-477): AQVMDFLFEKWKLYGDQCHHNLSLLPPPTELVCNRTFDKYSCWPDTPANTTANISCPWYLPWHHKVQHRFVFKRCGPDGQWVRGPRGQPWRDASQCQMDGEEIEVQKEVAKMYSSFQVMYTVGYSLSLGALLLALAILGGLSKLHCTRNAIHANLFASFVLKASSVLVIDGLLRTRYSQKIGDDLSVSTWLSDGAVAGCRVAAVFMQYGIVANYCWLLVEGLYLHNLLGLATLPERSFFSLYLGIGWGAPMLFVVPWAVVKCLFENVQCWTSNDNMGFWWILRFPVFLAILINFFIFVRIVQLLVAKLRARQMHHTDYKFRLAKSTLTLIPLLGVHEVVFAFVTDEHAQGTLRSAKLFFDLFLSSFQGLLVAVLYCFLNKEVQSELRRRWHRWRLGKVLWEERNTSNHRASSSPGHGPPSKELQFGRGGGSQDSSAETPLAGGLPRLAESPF

B1: Compound No. 0126 (peptide)
peptide: H[Aib]HGTFTSDYS[αMeK]LLEK([AEEA-AEEA-γGlu-C20 diacid])KAA[αMeS]EFVEWLIEGGPSSGAPPPS-NH2
modifications: N-terminus assumed
SMILES: CC[C@H](C)[C@H](NC(=O)[C@H](CC(C)C)NC(=O)[C@H](Cc1c[nH]c2ccccc12)NC(=O)[C@H](CCC(=O)O)NC(=O)[C@@H](NC(=O)[C@H](Cc1ccccc1)NC(=O)[C@H](CCC(=O)O)NC(=O)[C@](C)(CO)NC(=O)[C@H](C)NC(=O)[C@H](C)NC(=O)[C@H](CCCCN)NC(=O)[C@H](CCCCNC(=O)COCCOCCNC(=O)COCCOCCNC(=O)CC[C@H](NC(=O)CCCCCCCCCCCCCCCCCCC(=O)O)C(=O)O)NC(=O)[C@H](CCC(=O)O)NC(=O)[C@H](CC(C)C)NC(=O)[C@H](CC(C)C)NC(=O)[C@](C)(CCCCN)NC(=O)[C@H](CO)NC(=O)[C@H](Cc1ccc(O)cc1)NC(=O)[C@H](CC(=O)O)NC(=O)[C@H](CO)NC(=O)[C@@H](NC(=O)[C@H](Cc1ccccc1)NC(=O)[C@@H](NC(=O)CNC(=O)[C@H](Cc1c[nH]cn1)NC(=O)C(C)(C)NC(=O)[C@@H](N)Cc1c[nH]cn1)[C@@H](C)O)[C@@H](C)O)C(C)C)C(=O)N[C@@H](CCC(=O)O)C(=O)NCC(=O)NCC(=O)N1CCC[C@H]1C(=O)N[C@@H](CO)C(=O)N[C@@H](CO)C(=O)NCC(=O)N[C@@H](C)C(=O)N1CCC[C@H]1C(=O)N1CCC[C@H]1C(=O)N1CCC[C@H]1C(=O)N[C@@H](CO)C(N)=O
For B1, which “Activity against human GLP-1R (EC50 nM)” value [1] is on record?
The value was 0.008 nM.

And the “Activity against human GCGR (EC50 nM)” value (human glucagon receptor)?
Its value is 0.008 nM.

And the “Activity against human GIPR (EC50 nM)” value [2]?
The value was 0.002 nM.
